Here are results for one substance from patent publication US20040053332A1.

The experiment has as its target ER-DEVD-Luc (mouse; firefly). The experiment can be described thus: cell-based or functional assay.

As for caspase-3 (from UniProt P42574 29-277), the cleavage of the 90 kDa fusion to a 60 kDa polypeptide (western blot, 293T cells treated with staurosporine) came to 50%.
